Test results as given in US20230313203A1.
pKd: −log10 of the molar value. Several values for one entry are separate records, joined by “and”; a condition that tells them apart may be missing. Equal values may be shown once. Read-outs that look alike come from different tables or passages of the source.

How the values were obtained:
Assay in all cases: filter
[1] = target: SARS-CoV-2 spike receptor binding domain (Wuhan) (SARS-CoV-2) (UniProt P0DTC2)
[2] = target: SARS-CoV-2 spike S1 (Wuhan), His-tagged (SARS-CoV-2) (UniProt P0DTC2)
[3] = target: SARS-CoV-2 spike S1 (Wuhan), untagged (SARS-CoV-2) (UniProt P0DTC2)
[4] = target: SARS-CoV-1 spike S1 (SARS-CoV-1) (UniProt P59594)
[5] = first 20 nt DNA, rest FANA (T in random region is faU)
[6] = first 20 nt DNA, rest FANA (SEQ ID NO 17)
[7] = first 20 nt DNA, rest FANA (SEQ ID NO 1)
[8] = first 20 nt DNA, rest FANA (SEQ ID NO 3)

In the case of “AAAAGGTAGTGCTGAATTCGATTCTCGATTGATGGCATAAAAAGCATAGAATCGCAAGCAUUCGCUAUCCAGUUGGCCU [FANA-R8-7]”, the pKd [1, 5] was 7.20 and the pKd [2, 5] was 7.51.
With “AAAAGGTAGTGCTGAATTCGCGAGCCCGCAUGAAAAGGGGAGAUAAAAAAUAUCUGUCGAUUCGCUAUCCAGUUGGCCU [FANA-R8-9]” the pKd [1] was 7.63 and 7.71, the pKd [2] was 7.83 and the pKd [3] was 7.53. It also gave a pKd [4] of 6.59.
“AAAAGGTAGTGCTGAATTCGCGAGCCCGCAUGAAAAGGGGAGAUAUGCAAUAUCUGUCGAUUCGCUAUCCAGUUGGCCU [FANA-R8-22]” was tested, and the pKd [1, 6] was 7.67 and the pKd [2, 6] was 7.88.
Sequence “AAAAGGTAGTGCTGAATTCGGGAGCTCGAACAGATGGGATAAAAAGCATAGCTCACCAATUUCGCUAUCCAGUUGGCCU [FANA-R8-15]” has a pKd [1, 5] of 7.36 and a pKd [2, 5] of 7.56.
Work on “AAAAGGTAGTGCTGAATTCGGTCGCGATTAACATTAAACCGCATAAAAAGGGTGGCCGGAUUCGCUAUCCAGUUGGCCU [FANA-R8-3]” yielded a pKd [1, 5] of 7.17 and a pKd [2, 5] of 7.33.
“AAAAGGTAGTGCTGAATTCGNNNNNNNNNNNNNNNNNNNNNNNNNNNNNNNNNNNNNNNNUUCGCUAUCCAGUUGGCCU [FANA-ST]” showed a pKd ([1]; first 20 nt DNA, rest 2'-fluoro-arabino (FANA)) of 5.77.
With “AAAAGGTAGTGCTGAATTCGUCGAACUAAACCGAAUUGAUGGCAUAAAAAGCAUGUUUAGUUCGCUAUCCAGUUGGCCU [FANA-R8-5]” the pKd [1, 7] was 7.58 and the pKd [2, 7] was 7.78.
“AAAAGGTAGTGCTGAATTCGUCGAACUAAUCCGAAUUGAUGGCAUAAAAAGCAUGUUUAGUUCGCUAUCCAGUUGGCCU [FANA-R8-17]” showed a pKd [1, 8] of 7.53 and a pKd [2, 8] of 7.72.
